In patent US20200199244A1 (published 2020):
Where “and” joins values, the source holds several entries; their conditions need not be identical. Equal values may be shown once. One block for each binder: values may come before it.

Legend:
[1] = target: T1, Macaca fascicularis CD40 (Macaca fascicularis (cynomolgus monkey), UniProt P25942 21-277 (human entry)); experiment: cell-based or functional assay
T1 chain: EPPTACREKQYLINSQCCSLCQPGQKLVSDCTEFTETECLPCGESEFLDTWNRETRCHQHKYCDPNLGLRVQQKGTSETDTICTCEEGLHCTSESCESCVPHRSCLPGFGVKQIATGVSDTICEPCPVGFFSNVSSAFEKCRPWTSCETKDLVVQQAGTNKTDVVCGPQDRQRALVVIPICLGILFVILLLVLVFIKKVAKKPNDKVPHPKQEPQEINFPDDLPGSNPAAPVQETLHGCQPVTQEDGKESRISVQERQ

[2] = target: human CD40 (human, UniProt P25942 21-277); experiment: cell-based or functional assay
[3] = target: T2, human CD40 (BMS, CY24FEB06-01) (human, UniProt P25942 21-193); experiment: bead RBA, competition with IZ-CD40L
T2 construct: Soluble reagent of the bead and ELISA RBA; It is detected with an anti-human IgG (Fc) mAb, so it may be a CD40-Ig fusion

[4] = target: T3, human CD40 (BMS, CY24FEB06-01) (human, UniProt P25942 21-193); experiment: ELISA RBA, competition with IZ-CD40L for soluble human CD40;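 further: Neutravidin-coated 384-well plates, dAb–human CD40 complex incubated 2 h at room temperature, read-out as absorbance at 450 nm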
T3 construct: Soluble human CD40 reagent of the ELISA RBA
Protocol: Clear walled High Bind, 384-well plates (Corning, UK) were coated with 25 μl of 1 μg/ml Neutravidin in 0.2 M carbonate-bicarbonate buffer, pH 9.4 overnight at 4° C. The following day, assay plates were washed with 0.1% (v/v) Tween PBS buffer, blocked with 1% (w/v) BSA in PBS for 1 hour at room temperature and washed again. […] Following washing of the assay plate, the dAb:human CD40 complex was incubated in the assay plate at room temperature for 2 hours with gentle agitation. […] Absorbance signal was measured using a SpectraMax® M5e plate reader (Molecular Devices) at 450 nm following neutralization with 1M HCl solution.

[5] = target: human CD40 on RAMOS human B cells (human, UniProt P25942 21-277); experiment: cell-based or functional assay
[6] = target: T4, human CD40 (H76R, W109L, L121P) Fc fusion (human); experiment: SPR ProteOn XPR36;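 further: surface plasmon resonance with CD40-Fc fusions captured through their Fc on an anti-human IgG chip, sensorgrams reference-subtracted against surfaces lacking CD40-Fc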
T4 construct: As m1 with H76R, W109L and L121P; also called hCD40-M5; not shown: human IgG1 Fc
T4 chain: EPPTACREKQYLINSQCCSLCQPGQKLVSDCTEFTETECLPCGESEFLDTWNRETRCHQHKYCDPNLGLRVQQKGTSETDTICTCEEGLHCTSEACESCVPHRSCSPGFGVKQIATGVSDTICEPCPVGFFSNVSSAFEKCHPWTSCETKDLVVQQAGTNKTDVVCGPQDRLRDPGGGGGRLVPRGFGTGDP

[7] = target: T5, wild type cynomolgus monkey CD40 Fc fusion (cynomolgus monkey; human); experiment: SPR ProteOn XPR36;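 further: surface plasmon resonance with CD40-Fc fusions captured through their Fc on an anti-human IgG chip, sensorgrams reference-subtracted against surfaces lacking CD40-Fc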
T5 construct: also called wt-cyno-CD40; wt-cCD40; not shown: human IgG1 Fc
T5 chain: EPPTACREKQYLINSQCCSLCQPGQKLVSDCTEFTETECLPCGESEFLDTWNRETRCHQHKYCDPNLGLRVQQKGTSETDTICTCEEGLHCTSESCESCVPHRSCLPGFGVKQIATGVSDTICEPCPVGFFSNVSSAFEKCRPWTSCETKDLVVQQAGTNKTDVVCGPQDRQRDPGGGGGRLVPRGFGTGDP

[8] = target: T6, human CD40 (W109L, L121P) Fc fusion (human, UniProt P25942 21-193); experiment: SPR ProteOn XPR36;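 further: surface plasmon resonance with CD40-Fc fusions captured through their Fc on an anti-human IgG chip, sensorgrams reference-subtracted against surfaces lacking CD40-Fc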
T6 construct: As m1 with W109L and L121P; also called hCD40-M4; not shown: human IgG1 Fc

B1: BMS3h-37-2 (other)
VH: EVQLLESGGGLVQPGGSLRLSCAASGFTFEWYEMQWVRRAPGKGLEWVSAISGDGYRTYYADSVKGRFTISRDNSKNTLYLQMNSLRAEDTAVYYCAKELGYFDYWGRGTLVTVSS
- hIZCD40L-driven Cyno B Cell Proliferation EC50 [1]: > 7000 nM
- CHO-hCD40L-driven DC Activation IL-12 EC50 [2]: 13 nM
- T-B cell MLR EC50 [2]: 198 nM
- hIZCD40L-driven Human B Cell Proliferation EC50 [2]: 5 nM

B3: BMS3h-56-201 (other)
VH: EVQLLESGGGLVQPGGSLRLSCAASGFTFRDYEMWWVRQAPGKGLERVSAINPQGTRTYYADSVKGRFTISRDNSKNTLYLQMNSLRAEDTAVYYCAKLPFYFQEWGQGTLVTVSS
notes: domain antibody (dAb): single human VH domain
- EC50 [4]: 3.7 nM and 2.3 nM
- EC50 ICAM1 cell assay [5]: 10 nM

B4: BMS3h-56-1 (other)
VH: EVQLLESGGGLVQPGGSLRLSCAASGFTFRDYEMWWVRQAPGKGLERVSAINPQGTRTYYADSVKGRFTISRDNSKNTLYLQMNSLRAEDTAVYYCAKLPFTFEDWGQGTLVTVSS
notes: domain antibody (dAb), single VH domain; also called 3h-56-l
- binding result [6]: no binding (tested: 405 nM)
- binding result [7]: no binding (tested: 405 nM)
- binding result [8]: no binding (tested: 405 nM)

B5: BMS3h-56 (other)
VH: EVQLLESGGGLVQPGGSLRLSCAASGFTFRDYEMWWVRQAPGKGLERVSAINPQGTRTYYADSVKGRFTISRDNSKNTLYLQMNSLRAEDTAVYYCAKLPFIFDYWGQGTLVTVSS
notes: dAb, single VH
- EC50 [3]: 1000 nM and 500 nM

B6: BMS3h-37 (other)
VH: EVQLLESGGGLVQPGGSLRLSCAASGFTFEWYEMQWVRQAPGKGLEWVSAISGDGYRTYYADSVKGRFTISRDNSKNTLYLQMNSLRAEDTAVYYCAKELGYFDYWGQGTLVTVSS
notes: dAb, single VH
- EC50 [3]: 100 nM and 200 nM

B16: BMS3h-38 (other)
VH: EVQLLESGGGLVQPGGSLRLSCAASGFTFEEEEMIWVRQAPGKGLEWVSAISGSGGSTYYADSVKGRFTISRDNSKNTLYLQMNSLRAEDTAVYYCAKEPFRFDYWGQGTLVTVSS
- hIZCD40L-driven Cyno B Cell Proliferation EC50 [1]: > 7000 nM
- hIZCD40L-driven Human B Cell Proliferation EC50 [2]: 2800 nM

B17: BMS3h-38 (other)
VH: EVQLLESGGGLVQPGGSLRLSCAASGFTFEEEEMIWVRQAPGKGLEWVSAISGSGGSTYYADSVKGRFTISRDNSKNTLYLQMNSLRAEDTAVYYCAKEPFRFDYWGQGTLVTVSS
notes: dAb, single VH
- EC50 [3]: 600 nM and 650 nM

B18: BMS3h-38-2 (other)
VH: EVQLLASGGGLVQPGGSLRLSCAASGFTFEEEEMIWVRQAPGKGLEWVSAISGSGGSTYYADSVKGRFTISRDNSKNTLYLQMNSLRAEDTAVYYCGKEPFRYDYWGQGTLVTVSS
- hIZCD40L-driven Cyno B Cell Proliferation EC50 [1]: > 7000 nM
- CHO-hCD40L-driven DC Activation IL-12 EC50 [2]: 289 nM
- CHO-hCD40L-driven Human B Cell Proliferation EC50 [2]: 723 nM
- T-B cell MLR EC50 [2]: 986 nM
- hIZCD40L-driven Human B Cell Proliferation EC50 [2]: 10 nM

B19: BMS3h-41 (other)
VH: EVQLLESGGGLVQPGGSLRLSCAASGFTFTEYEMIWVRQAPGKGLEWVSSISGNGANTYYADSVKGRFTISRDNSKNTLYLQMNSLRAEDTAVYYCAKEPLRFDYWGQGTLVTVSS
notes: dAb, single VH
- EC50 [3]: 2000 nM and 1600 nM

The remaining lines, values ahead:

- EC50 [3]: 1000 nM
B2: BMS3h-193 (other)
VL: DIQMTQSPSSLSASVGDRVTITCRASQTIERRLNWYQQKPGKAPKLLIYLASRLQSGVPSRFSGSGSGTDFTLTISSLQPEDFATYYCHQYASPPLTFGQGTKVEIKR
notes: dAb, single VK

- binding result [6]: no binding (tested: 405 nM)
- binding result [7]: no binding (tested: 405 nM)
- binding result [8]: no binding (tested: 405 nM)
B7: BMS3h-56-5 (other)
VH: EVQLLESGGGLVQPGGSLRLSCAASGFTFRDYEMWWVRQAPGKGLERVSAINPQGTRTYYADSVMGRFTISRDNSKNTLYLQMNSLRAEDTAVYYCAKLPFTFDDWGQGTLVTVSS
notes: domain antibody (dAb), single VH domain

- binding result [6]: no binding (tested: 405 nM)
- binding result [7]: no binding (tested: 405 nM)
- binding result [8]: no binding (tested: 405 nM)
B8: BMS3h-56-206 (other)
VH: EVQLLESGGGLVQPGGSLRLSCAASGFTFRDYEMWWVRQAPGKGLERVSAINPQGTRTYYADSVKGRFTISRDNSKNTLYLQMNSLRAEDTAVYHCAKLPMFFEDWGQGTLVTVSN
notes: as for B7

- binding result [6]: no binding (tested: 405 nM)
- binding result [7]: no binding (tested: 405 nM)
- binding result [8]: no binding (tested: 405 nM)
B9: BMS3h-56-2 (other)
VH: EVQLLESGGGLVQPGGSLRLSCAASGFTFRDYEMWWVRQAPGKGLERVSAINPQGTRTYYADSVKGRFTISRDNSKNTLYLQMNSLRAEDTAVYYCAKLPFTFDDWGQGTLVTVSS
notes: as for B7

- EC50 [4]: 5.2 nM and 4.3 nM
- EC50 ICAM1 cell assay [5]: 70 nM
B10: BMS3h-56-203 (other)
VH: EVQLLESGGGLVQPGGSLRLSCAASGFTFRDYEMWWVRQAPGKGLERVSAINPQGTRTYYADSVKGRFTISRDNSKNTLYLQMNSLRAEDTAVYYCAKLPFFFEEWGQGTLVTVSS
notes: as for B3

- EC50 ICAM1 cell assay [5]: 5 nM
B11: BMS3h-56-206 (other)
VH: EVQLLESGGGLVQPGGSLRLSCAASGFTFRDYEMWWVRQAPGKGLERVSAINPQGTRTYYADSVKGRFTISRDNSKNTLYLQMNSLRAEDTAVYHCAKLPMFFEDWGQGTLVTVSN

- binding result [6]: no binding (tested: 405 nM)
- binding result [7]: no binding (tested: 405 nM)
- binding result [8]: no binding (tested: 405 nM)
B12: BMS3h-56-217 (other)
VH: EVQLLESGGGLVQPGGSLRLSCAASGFTFRDYEMWWVRQAPGKGLERVSAINPWGSLTYYADSVKGRFTISRDNSKNTLYLQMNSLRAEDTAVYYCAKLPFTFEDWGQGTLVTVSS
notes: as for B7

- EC50 ICAM1 cell assay [5]: 80 nM
B13: BMS3h-56-202 (other)
VH: EVQLLESGGGLVQPGGSLRLSCAASGFTFRDYEMWWVRQAPGKGLERVSAINPQGTRTYYADSVKGRFTISRDNSKNTLYLQMNSLRAEDTAVYYCAKLPTYFSDRGQGTLVTVSS

- EC50 [4]: 3.2 nM and 4.6 nM
- EC50 ICAM1 cell assay [5]: 40 nM
B14: BMS3h-56-215 (other)
VH: EVQLLESGGGLVQPGGSLRLSCAASGFTFRDYEMWWVRQAPGKGLERVSAINPHGSLTYYADSVKGRFTISRDNSKNTLYLQMNSLRAEDTAVYYCAKLPFTFDDWGQGTLVTVSS
notes: as for B3

- binding result [6]: no binding (tested: 405 nM)
- binding result [7]: no binding (tested: 405 nM)
- binding result [8]: no binding (tested: 405 nM)
B15: BMS3h-56-202 (other)
VH: EVQLLESGGGLVQPGGSLRLSCAASGFTFRDYEMWWVRQAPGKGLERVSAINPQGTRTYYADSVKGRFTISRDNSKNTLYLQMNSLRAEDTAVYYCAKLPTYFSDRGQGTLVTVSS
notes: as for B7

- EC50 [3]: 3700 nM and 3000 nM
B20: BMS3h-202 (other)
VH: EVQLLESGGGLVQPGGSLRLSCAASGFTFPTAEMVWVRQAPGKGLEWVSSISASGGSTYYADSVKGRFTISRDNSKNTLYLQMNSLRAEDTAVYYCAKEPVSYVATFDYWGQGTLVTVSS
notes: dAb, single VH

- EC50 [3]: 500 nM and > 1000 nM
B21: BMS3h-131 (other)
VL: DIQMTQSPSSLSASVGDRVTITCRANSSILWALAWYQQKPGKAPKLLIESSSGLQSGVPSRFSGSGSGTDFTLTISSLQPEDFATYYCVQNAGWPGTFGQGTKVEIKR
notes: dAb, single VK
